The chains are these.
B1: Twister Ribozyme (parent)
chain: AACACUGCCAAUGCCGGUCCCAAGCCCGGAUAAAAGUGGAGGGGGCGG

Variants of B1 are the subject of the data set. Description: self-cleavage, relative activity (ratio to wild type); higher = more cleavage; co-transcriptional.
Take AACACUGCAAAUGCCGGUACCAAGCCCGGAUAAAAGUGGAGGGGGCGG [C9A C19A]: the self-cleavage stood at 0.089.

For AACAAUGCCAAUGCCGGUCCCAAGCCCGGAUAAAAGUGGAGGGGGCGG [C5A], the self-cleavage is 0.66.

Regarding AACACUGCCAAUGCCGGUCCCAAGCCGGGAUAAUAGUGGAGGGGGCGG [C27G A34U], the self-cleavage is 0.0972.

For the variant AACACUUCCAAUGCCGGUCCCAAGCCCGGAUAAAAGUCGAGGGGGCGG [G7U G38C], the self-cleavage amounted to 0.0818.

AACACUGCCAAUGCCGGUCCCAAGCGUGGAUAAAAGUGGAGGGGGCGG [C26G C27U]: the self-cleavage was 0.0811.

For the variant CACACUGCCAAUGCCGGUCCCUAGCCCGGAUAAAAGUGGAGGGGGCGG [A1C A22U], the self-cleavage is 0.14.

As for AACACUGCCAAGGCCGGUCCCAGGCCCGGAUAAAAGUGGAGGGGGCGG [U12G A23G], the self-cleavage is 0.502.

AACACCGCCAAUGCCGGUCCCAAGCCCGGAUAAAAGUGGAGGUGGCGG [U6C G43U]: the self-cleavage stood at 0.134.

Take AACACUGCCAAUGUCGGUCCCAAGCCCGGAUAAAACUGGAGGGGGCGG [C14U G36C]: the self-cleavage was 0.464.

In the case of AACACUGCCAAUGCCGGUCCCAAGCCCGGAUAAAAGUGGGGGGGGGGG [A40G C46G], the self-cleavage was determined as 0.184.

As to AACACUGCCAAUGCCGGUCCCAAGCCCGGGUAAACGUGGAGGGGGCGG [A30G A35C], the self-cleavage came out at 0.792.

AACACUGCCAAUGCCCCUCCCAAGCCCGGAUAAAAGUGGAGGGGGCGG [G16C G17C]: the self-cleavage turned out to be 0.0907.

Take AACACUGCCAAUGCCGGACCCAAGCCCGAAUAAAAGUGGAGGGGGCGG [U18A G29A]: the self-cleavage stood at 0.41.

Take AUCACUGCGAAUGCCGGUCCCAAGCCCGGAUAAAAGUGGAGGGGGCGG [A2U C9G]: the self-cleavage was determined as 0.119.

For AACACUGCCAAUGCCGGUCCAAAGCCCGGACAAAAGUGGAGGGGGCGG [C21A U31C], the self-cleavage was 0.153.

On to AACACUGCCAAUGCCGGUCCCAAGCCCGGAAAAAAGUGGAGGGGGCCG [U31A G47C], for which the self-cleavage worked out at 0.391.

Turning to AACACUGCCAAUGUCGGUCCCAAGCCCGGAUAAAAGAGGAGGGGGCGG [C14U U37A], the self-cleavage was 0.83.

For AACACUGCCAAUGCCGGUCCCAAGGCCGGAUAAAAGUGUAGGGGGCGG [C25G G39U], the self-cleavage was 0.121.

In the case of AACACUGCCAAUGCCGGUCCCAAGCCCAUAUAAAAGUGGAGGGGGCGG [G28A G29U], the self-cleavage worked out at 0.9.

In the case of AACACUGCCAAUGCCGGUCCCAAGCCCGGAUAUAGGUGGAGGGGGCGG [A33U A35G], the self-cleavage worked out at 0.8.

Consider AACACUGCCAAUGCCGGUCCCAAGCCAGGAUAAAAGUGGAGGGGCCGG [C27A G45C], for which the self-cleavage turned out to be 0.144.

Consider AACUCUGCCAAUGCCGGUCCCAAGCCCGGAAAAAAGUGGAGGGGGCGG [A4U U31A], for which the self-cleavage turned out to be 0.143.

For the variant AACGCUGCCAAUGCCGGUCCCAAGCACGGAUAAAAGUGGAGGGGGCGG [A4G C26A], the self-cleavage turned out to be 0.293.

Turning to AACACUGCCAAAGCCGGUCCCAAGCCCGGAUAAAAGUGCAGGGGGCGG [U12A G39C], the self-cleavage came to 0.127.

In the case of AACACUGCCAAUGCCGGUCCCAAGCCCGGAUCAAAGUGGAGGGGGUGG [A32C C46U], the self-cleavage came out at 0.863.

Regarding AACACAGCCAAUGCCGGUCCCAAGCCGGGAUAAAAGUGGAGGGGGCGG [U6A C27G], the self-cleavage is 0.11.

With AAUACUGCCGAUGCCGGUCCCAAGCCCGGAUAAAAGUGGAGGGGGCGG [C3U A10G], the self-cleavage amounted to 0.474.

For AACACUGCCAAUGACGGUCCCAAGCCCCGAUAAAAGUGGAGGGGGCGG [C14A G28C], the self-cleavage worked out at 0.757.

For AACACUGCCAAUGACGGUCCCAAGCCCAGAUAAAAGUGGAGGGGGCGG [C14A G28A], the self-cleavage was determined as 0.818.

As for AACACUACCAAUGCCGGUCCCGAGCCCGGAUAAAAGUGGAGGGGGCGG [G7A A22G], the self-cleavage stood at 0.0675.

For CACACUGCCAAUGCCGGUCGCAAGCCCGGAUAAAAGUGGAGGGGGCGG [A1C C20G], the self-cleavage is 0.0894.

AACACUGCCAAUGCCGGUCCCAAGCCCGGAUAAAAGUUGAGGGGGAGG [G38U C46A]: the self-cleavage amounted to 0.794.

For the variant AACACUACCAAUGCCGGUCCCAAGCCCGGAUAAAAGCGGAGGGGGCGG [G7A U37C], the self-cleavage worked out at 0.111.

With AACAGUGCCAAUGCCGGUCCCAAGCCCGGAUAAAAGUGGAGGGGGUGG [C5G C46U], the self-cleavage is 0.77.

As to AACACUGCCUAUGCCGGUCCCAAGCCCGGAUAAAAGUGGAGGGGUCGG [A10U G45U], the self-cleavage came out at 0.871.

On to AACACUGCCAAUGCCGGUCCCGAGCCCGGAUAAGAGUGGAGGGGGCGG [A22G A34G], for which the self-cleavage was found to be 0.0987.

As to AACACUGUCAAUGCCGGUCCCAAGCCCGGGUAAAAGUGGAGGGGGCGG [C8U A30G], the self-cleavage amounted to 0.766.

Regarding AACACUGUCAAUGCCGGUCCCAAGCCCGGCUAAAAGUGGAGGGGGCGG [C8U A30C], the self-cleavage is 0.15.

In the case of AACACUGCCAAUGCCGGUCCCAAGCCCGGAUGAAAGUGGAGGGUGCGG [A32G G44U], the self-cleavage stood at 1.06.

As to AACACUGCCAAUGCCGGUCCCAAGCCCGGAUAAAAGCGCAGGGGGCGG [U37C G39C], the self-cleavage came to 0.0703.

AACAUUGCCAAUGCCGGUCCCAAGCCCGGAUAAAAUUGGAGGGGGCGG [C5U G36U]: the self-cleavage amounted to 0.644.

As to AUCACUGCCAAUGCCGGUCCCAAGCCCGGAUAAAAGUGGAGGCGGCGG [A2U G43C], the self-cleavage was 0.137.

Take AACACUGCCAAUGCUGGUCCCAAGCCCGGAUAAAAGUGGAGUGGGCGG [C15U G42U]: the self-cleavage is 0.235.

With AACACUGCCAAUGCCGGUCCCAAACCCGGAUAAAAGUGGAGGAGGCGG [G24A G43A], the self-cleavage came to 0.102.

Turning to AACAAUGCCAAUGCCGGUCCCAAGCCCGGACAAAAGUGGAGGGGGCGG [C5A U31C], the self-cleavage was found to be 0.653.

For AACCCUGCCAAUGCCGGUCCCAAGCCCGGAUACAAGUGGAGGGGGCGG [A4C A33C], the self-cleavage turned out to be 0.108.

For AACACUGCCAAUGCCGGUCCGAAUCCCGGAUAAAAGUGGAGGGGGCGG [C21G G24U], the self-cleavage came to 0.0976.

With AACACUGCCAAUGCCGGUCCCAAGCCCGGAUAAAAGUGUAGGGGACGG [G39U G45A], the self-cleavage came to 0.151.

In the case of AACACUGCCAAUGCCGGUCCCAAGCCCGGAUAAAAGUGGAAAGGGCGG [G41A G42A], the self-cleavage was 0.129.

Regarding AACACUGCCAAUGCCGGUCCCAAUCCCGGAUACAAGUGGAGGGGGCGG [G24U A33C], the self-cleavage was found to be 0.142.

In the case of AACACUGCCAAUGCCGGUCCCAAGUCCGGAUACAAGUGGAGGGGGCGG [C25U A33C], the self-cleavage came out at 0.791.

Regarding AACACUGCCAAUGCCGGUCCCAAGCGCGGAUAAAAGUGGAGGGGGAGG [C26G C46A], the self-cleavage came to 0.153.

Turning to AACACUGCCAAUGCCGGUCCCAAGCCCGGUUAAAUGUGGAGGGGGCGG [A30U A35U], the self-cleavage was found to be 0.812.

Regarding AACUCUGCCAAUGCCGGUCCCAAGCGCGGAUAAAAGUGGAGGGGGCGG [A4U C26G], the self-cleavage is 0.0523.

Values taken from the RNAGym collection of RNA variant scans (doi:10.7554/elife.80360).
